{"source": "patent US20060088549A1", "about": "“Chimeric virus vaccine” (priority 2004, published 2006)", "key": {"[1]": {"test_system": "2F5", "details": "cited from earlier work; for binding/affinity to 2F5 relative to the LELDKWASL peptide: Tian, 2003"}, "[2]": {"target": "Biotin-conjugated …-NH2 (HIV-1)", "assay": "direct ELISA, IgG on immobilized biotinylated …", "details": "scale: reciprocal dilution of 1 mg/ml IgG at OD450 of 0.5"}, "[3]": {"target": "HRV14:HIV-1 gp41 […] chimeric virus 44-B64-4", "assay": "cell-based or functional assay"}, "[4]": {"target": "HRV14:HIV-1 gp41 […] chimeric virus 14-B128-22", "assay": "cell-based or functional assay"}, "[5]": {"target": "HRV14:HIV-1 gp41 […] chimeric virus 44-BN30000-2", "assay": "cell-based or functional assay"}, "[6]": {"target": "HRV14:HIV-1 gp41 […] chimeric virus 14-C4000-14", "assay": "cell-based or functional assay"}, "[7]": {"target": "HRV14:HIV-1 gp41 […] chimeric virus 64-C32-3", "assay": "cell-based or functional assay"}, "[8]": {"target": "HRV14:HIV-1 gp41 […] chimeric virus 44-B64-14", "assay": "cell-based or functional assay"}, "[9]": {"target": "HRV14:HIV-1 gp41 […] chimeric virus 44-BN7500-4", "assay": "cell-based or functional assay"}, "[10]": {"target": "HRV14:HIV-1 gp41 […] chimeric virus 14-C512-2", "assay": "cell-based or functional assay"}, "[11]": {"target": "HRV14:HIV-1 gp41 […] chimeric virus 44-B4000-13", "assay": "cell-based or functional assay"}, "[12]": {"target": "HRV14:HIV-1 gp41 […] chimeric virus 14-C4000-1 (human rhinovirus type 14) (UniProt P03303)", "assay": "cell-based or functional assay"}, "[13]": {"target": "HRV14:HIV-1 gp41 […] chimeric virus 14-C1000-1", "assay": "cell-based or functional assay"}, "[14]": {"target": "HRV14:HIV-1 gp41 […] chimeric virus 14-B64-5", "assay": "cell-based or functional assay"}, "[15]": {"target": "HRV14:HIV-1 gp41 […] chimeric virus 64-C16-2", "assay": "cell-based or functional assay"}, "[16]": {"target": "HRV14:HIV-1 gp41 […] chimeric virus 24-AN15000-3", "assay": "cell-based or functional assay"}, "[17]": {"target": "HRV14:HIV-1 gp41 […] chimeric virus 44-BN30000-9", "assay": "cell-based or functional assay"}, "[18]": {"target": "HRV14:HIV-1 gp41 […] chimeric virus 64-B32-4", "assay": "cell-based or functional assay"}, "[19]": {"target": "HRV14:HIV-1 gp41 […] chimeric virus 44-B256-2", "assay": "cell-based or functional assay"}, "[20]": {"target": "HRV14:HIV-1 gp41 […] chimeric virus 64-B32-3", "assay": "cell-based or functional assay"}, "[21]": {"target": "HRV14:HIV-1 gp41 […] chimeric virus 14-C512-3", "assay": "cell-based or functional assay"}, "[22]": {"target": "HRV14:HIV-1 gp41 […] chimeric virus 22-AN15000-8", "assay": "cell-based or functional assay"}, "[23]": {"target": "HRV14:HIV-1 gp41 […] chimeric virus 14-B128-23", "assay": "cell-based or functional assay"}, "[24]": {"target": "HRV14:HIV-1 gp41 […] chimeric virus 44-B64-12", "assay": "cell-based or functional assay"}, "[25]": {"target": "HRV14:HIV-1 gp41 […] chimeric virus 64-B256-2", "assay": "cell-based or functional assay"}, "[26]": {"target": "HRV14:HIV-1 gp41 […] chimeric virus 14-B128-12", "assay": "cell-based or functional assay"}, "[27]": {"target": "HRV14:HIV-1 gp41 […] chimeric virus 44-C4000-4 (human rhinovirus type 14) (UniProt P03303)", "assay": "cell-based or functional assay"}}, "note": "Entries after “also recorded” stand apart in the source; their conditions may differ.", "data": [{"substance": "Ac-CENEQELLELDKWASL-NH2 [Linear-1]", "values": [{"measurement": "binding/affinity to 2F5 relative to the LELDKWASL peptide", "setting": "[1]", "result": "higher affinities to 2F5"}]}, {"substance": "Ac-CNEQELLEKDKWADL-NH2 (lactam (positions not given here); also: lactam bridge between underlined K and D, places not given here) [Lac-1, constrained peptide with a lactam bridge between K and D residues]", "values": [{"measurement": "binding/affinity to 2F5 relative to the LELDKWASL peptide", "setting": "[1]", "result": "higher affinities to 2F5; also recorded: two times more tightly"}]}, {"substance": "LELDKWASL", "values": [{"measurement": "binding to 2F5 in an ELISA relative to the shorter ELDKWAS peptide", "setting": "[1]; Tian et al., 2002", "result": "~100", "unit": "fold"}]}, {"substance": "human mAb 2F5 (antibody)", "values": [{"measurement": "… binding", "setting": "[2]", "result": 2400}, {"measurement": "2F5 IC50, microtiter neutralization assay", "setting": "[3]", "result": 0.06, "unit": "µg/mL"}, {"measurement": "2F5 IC50, microtiter neutralization assay", "setting": "[4]", "result": 0.57, "unit": "µg/mL"}, {"measurement": "2F5 IC50, microtiter neutralization assay", "setting": "[5]", "result": 0.01, "unit": "µg/mL"}, {"measurement": "2F5 IC50, microtiter neutralization assay", "setting": "[6]", "result": 0.64, "unit": "µg/mL"}, {"measurement": "2F5 IC50, microtiter neutralization assay", "setting": "[7]", "result": 0.05, "unit": "µg/mL"}, {"measurement": "2F5 IC50, microtiter neutralization assay", "setting": "[8]", "result": 0.16, "unit": "µg/mL"}, {"measurement": "2F5 IC50, microtiter neutralization assay", "setting": "[9]", "result": 0.01, "unit": "µg/mL"}, {"measurement": "2F5 IC50, microtiter neutralization assay", "setting": "[10]", "result": 0.05, "unit": "µg/mL"}, {"measurement": "2F5 IC50, microtiter neutralization assay", "setting": "[11]", "result": 0.24, "unit": "µg/mL"}, {"measurement": "2F5 IC50, microtiter neutralization assay", "setting": "[12]", "result": 0.98, "unit": "µg/mL"}, {"measurement": "2F5 IC50, microtiter neutralization assay", "setting": "[13]", "result": 1.5, "unit": "µg/mL"}, {"measurement": "2F5 IC50, microtiter neutralization assay", "setting": "[14]", "result": 0.29, "unit": "µg/mL"}, {"measurement": "2F5 IC50, microtiter neutralization assay", "setting": "[15]", "result": 0.07, "unit": "µg/mL"}, {"measurement": "2F5 IC50, microtiter neutralization assay", "setting": "[16]", "result": 1.5, "unit": "µg/mL"}, {"measurement": "2F5 IC50, microtiter neutralization assay", "setting": "[17]", "result": 0.02, "unit": "µg/mL"}, {"measurement": "2F5 IC50, microtiter neutralization assay", "setting": "[18]", "result": 0.49, "unit": "µg/mL"}, {"measurement": "2F5 IC50, microtiter neutralization assay", "setting": "[19]", "result": 0.31, "unit": "µg/mL"}, {"measurement": "2F5 IC50, microtiter neutralization assay", "setting": "[20]", "result": 0.05, "unit": "µg/mL"}, {"measurement": "2F5 IC50, microtiter neutralization assay", "setting": "[21]", "result": 3, "unit": "µg/mL"}, {"measurement": "2F5 IC50, microtiter neutralization assay", "setting": "[22]", "result": 8.2, "unit": "µg/mL"}, {"measurement": "2F5 IC50, microtiter neutralization assay", "setting": "[23]", "result": 5.9, "unit": "µg/mL"}, {"measurement": "2F5 IC50, microtiter neutralization assay", "setting": "[24]", "result": 0.21, "unit": "µg/mL"}, {"measurement": "2F5 IC50, microtiter neutralization assay", "setting": "[25]", "result": 0.23, "unit": "µg/mL"}, {"measurement": "2F5 IC50, microtiter neutralization assay", "setting": "[26]", "result": 0.49, "unit": "µg/mL"}, {"measurement": "2F5 IC50, microtiter neutralization assay", "setting": "[27]", "result": 0.66, "unit": "µg/mL"}]}]}
